Holding throughout (format): physicochemical
A short description of data set [1]: Retention of peptides on Costar polypropylene V-bottom wells. The following applies: 400V scan; for Untreated fluorescence: unwashed; for Retained fluorescence: washed 15 minutes in 1 M NaCl in 10 mM tris-HCl (pH 8.0). Here is the method:
(§1) The retention of peptides 2DOS-1 to 2DOS-16 (see above) on polypropylene and polystyrene surfaces was compared:
(§2) 5 mM tris-HCl (pH 8.0) in 75% (v/v) aqueous acetonitrile was used as the solvent for the peptides and for TAMRA.
(§3) 20 μl aliquots of 5 μM peptides 2DOS-1 to 2DOS-16 and 5 μM TAMRA were pipetted into the wells of a Costar V-bottomed polypropylene microtitre plate, a Greiner V-bottomed polypropylene microtitre plate, and a Greiner V-bottomed polystyrene microtitre plate according to the scheme shown in FIG. 26:
(§4) The peptide samples were allowed to evaporate to dryness in the dark.
(§5) The peptide samples in the top two rows of the microtitre plates were then incubated for 15 minutes at room temperature in 250 μl of 1 M NaCl in 10 mM tris-HCl (pH 8.0).
(§6) After incubation, the wash buffer was pipetted up and down eight times in the well before removing the supernatant.
(§7) The washed and untreated peptide samples were then resuspended in 50 μl of 10 mM tris-HCl (pH 8.0) in 50% (v/v) aqueous acetonitrile.
(§8) The microtitre plates were imaged at 200 μm resolution on a Typhoon Trio Plus variable mode imager (Amersham Biosciences) with the green (532 nm) laser and the 580 BP 30 filter at the PMT voltages indicated below and at normal sensitivity. The scan height was set at +3 mm and the sample was pressed during scanning.
(§9) The fluorescence images were analysed using ImageQuant TL v2003.03 (Amersham Biosciences).

Data set [2] in a line: Retention of peptides in flat-bottomed polypropylene wells. The note with it: flat-bottom wells, 500V scan; for Untreated fluorescence: unwashed; for Retained fluorescence: washed 15 minutes in 1 M NaCl in 10 mM tris-HCl (pH 8.0). As to the method:
(§10) The retention of peptides 2DOS-1 to 2DOS-16 (see above) on polypropylene wells of different geometries was investigated:
(§11) 10 mM tris-HCl (pH 8.0) in 50% (v/v) aqueous acetonitrile was used as the solvent for the peptides and for TAMRA.
(§12) 1 μl aliquots of 10 μM peptides 2DOS-1 to 2DOS-16 and 10 μM TAMRA were pipetted into the wells of a Costar V-bottomed polypropylene microtitre plate and a Greiner flat-bottomed polypropylene microtitre plate according to the following scheme as shown in FIG. 22:
as §4
(§13) The peptide samples in the top two rows of the microtitre plates were then incubated for 15′ minutes at room temperature in 250 μl of 1 M NaCl in 10 mM tris-HCl (pH 8.0).
as §6, §7
(§14) The microtitre plates were imaged at 200 μm resolution on a Typhoon Trio Plus variable mode imager (Amersham Biosciences) with the green (532 nm) laser and the 580 BP 30 filter at the PMT voltages indicated below and at normal sensitivity. The scan height was set at the platen and the sample was pressed during, scanning.
as §9

A short description of data set [3]: Retention of peptides in V-bottomed polypropylene wells. The following applies: V-bottom wells, 500V scan; for Untreated fluorescence: unwashed; for Retained fluorescence: washed 15 minutes in 1 M NaCl in 10 mM tris-HCl (pH 8.0). Here is the method: as §10, §11, §12, §4, §13, §6, §7, §14, §9
A short description of data set [4]: Retention of peptides on Greiner polypropylene V-bottom wells. The note with it: 400V scan; for Untreated fluorescence: unwashed; for Retained fluorescence: washed 15 minutes in 1 M NaCl in 10 mM tris-HCl (pH 8.0). As to the method: as §1, §2, §3, §4, §5, §6, §7, §8, §9
The nature of data set [5]: Retention of peptides on Greiner polystyrene V-bottom wells. The following applies: 400V scan; for Untreated fluorescence: unwashed; for Retained fluorescence: washed 15 minutes in 1 M NaCl in 10 mM tris-HCl (pH 8.0). Here is the method: as §1, §2, §3, §4, §5, §6, §7, §8, §9
Data set [6] is described as follows: Retention of peptides 2DOS-1 to 2DOS-16 on a hydrophobic surface (polypropylene microtitre plate wells), water wash. The note with it: 400V scan; for Initial fluorescence (×10^3): 100 μl of 10 μM peptide before drying and washing; for Recovered fluorescence (×10^3): dried, washed ten times with 250 μl water, resuspended. As to the method: The retention of peptides 2DOS-1 to 2DOS-16 on a hydrophobic surface (the wells of a polypropylene microtitre plate) was then investigated.
as §11
100 μl aliquots of 10 μM peptides 2DOS-1 to 2DOS-16 and 10 μM TAMRA were placed in the wells of a Costar microtitre plate as shown in FIG. 13:
The microtitre plate was imaged at 200 μm resolution on a Typhoon Trio Plus variable mode imager (Amersham Biosciences) with the green (532 nm) laser and the 580 BP 30 filter at the PMT voltages indicated below and at normal sensitivity. The scan height was set at +3 mm and the sample was pressed during scanning.
The peptides were allowed to evaporate to dryness overnight in the dark and the microtitre plate was again scanned as described above.
The wells were then washed ten times with 250 μl of water.
The residual surface-bound peptides were finally resuspended in 100 μl of 10 mM tris-HCl (pH 8.0) in 50% (v/v) aqueous acetonitrile and the microtitre plate was again scanned as described above.
as §9
Quantification data (using the data from the 400V scan) is given in Table 2 and shown graphically in FIG. 15.

Here are results for seven substances from US20090192048A1, “METHOD OF PRODUCING A […] AGENT FOR BINDING A LIGAND” (priority 2005, published 2009).

Ends that are not written are not given here.

As to “N-TAMRA-Asp-Phe- Ala-Phe-Ser-Phe- Lys-C ({TAMRA}-DFAFSFK) [Peptide 2DOS-6]”, the Percent retention was 22% in data set [1]; 36% in data set [2]; 39% in data set [3]; 22% in data set [4]; 25% in data set [5]. For the same substance, the Untreated fluorescence was 5,733,046 in data set [1]; 14,539,109 in data set [2]; 9,141,290 in data set [3]; 3,889,995 in data set [4]; 666,352 in data set [5]. In addition, the Retained fluorescence is reported as 1,256,204 in data set [1]; 5,256,539 in data set [2]; 3,527,116 in data set [3]; 849,582 in data set [4]; 167,118 in data set [5]. Further, in data set [6], the “Initial fluorescence (×10^3)” value is given as 33,853 ×10^3. In addition, the “Recovered fluorescence (×10^3)” value in data set [6] is recorded as 1,455 ×10^3.
As for “N-TAMRA-Asp-Phe- Asp-Phe-Asp-Phe- Asp-C ({TAMRA}-DFDFDFD) [Peptide 2DOS-14]”, the Percent retention in data set [1] is 11%; in data set [2] it was 4%; in data set [3] it was 13%; in data set [4], 13%; in data set [5], 9%. The Untreated fluorescence in data set [1] is 5,331,894; in data set [2], 15,090,582; in data set [3] it was 7,641,246; in data set [4] it was 3,612,113; in data set [5] it was 860,811. Further, the Retained fluorescence is on record as 595,959 in data set [1]; 670,341 in data set [2]; 1,018,179 in data set [3]; 461,468 in data set [4]; 75,304 in data set [5]. Further, the “Initial fluorescence (×10^3)” value in data set [6] is given as 28,071 ×10^3. Further, in data set [6], the “Recovered fluorescence (×10^3)” value is listed as 283 ×10^3.
Regarding “N-TAMRA-Asp-Ser- Ala-Ser-Ser-Ser- Lys-C ({TAMRA}-DSASSSK) [Peptide 2DOS-7]”, the Percent retention in data set [1] was 6%; in data set [2], 13%; in data set [3], 9%; in data set [4], 5%; in data set [5], 2%. Further, the Untreated fluorescence in data set [1] was 5,139,578; in data set [2], 10,189,473; in data set [3], 8,674,544; in data set [4] it was 3,751,280; in data set [5], 706,200. Further, the Retained fluorescence in data set [1] is on record as 326,328; in data set [2], 1,303,195; in data set [3], 746,596; in data set [4] it was 205,430; in data set [5] it was 15,766. In data set [6], the “Initial fluorescence (×10^3)” value was 29,134 ×10^3. Also, the “Recovered fluorescence (×10^3)” value in data set [6] was 0 ×10^3.
For the substance “N-TAMRA-Asp-Ser- Asp-Ser-Asp-Ser- Asp-C ({TAMRA}-DSDSDSD) [Peptide 2DOS-15]”, the Percent retention in data set [1], in data set [2], in data set [3], in data set [4] and in data set [5] was 1% throughout. In addition, the Untreated fluorescence is listed as 6,488,130 in data set [1]; 15,290,885 in data set [2]; 10,493,100 in data set [3]; 4,771,265 in data set [4]; 868,334 in data set [5]. Besides, the Retained fluorescence is given as 50,584 in data set [1]; 104,523 in data set [2]; 122,851 in data set [3]; 65,142 in data set [4]; 5,116 in data set [5]. In addition, the “Initial fluorescence (×10^3)” value in data set [6] is 30,845 ×10^3. For the same substance, the “Recovered fluorescence (×10^3)” value in data set [6] is 2 ×10^3.
Take “N-TAMRA-Norleu- Asp-Norleu-Ala- Norleu-Ser-Norleu- Lys-Norleu-C [Peptide 2DOS-1]”: the Percent retention in data set [1] is on record as 52%; in data set [2] it was 14%; in data set [3], 70%; in data set [4], 37%; in data set [5], 35%. For the same substance, the Untreated fluorescence in data set [1] is recorded as 6,458,364; in data set [2], 14,949,396; in data set [3], 9,550,835; in data set [4], 3,328,960; in data set [5], 640,145. Besides, the Retained fluorescence is recorded as 3,366,403 in data set [1]; 2,157,124 in data set [2]; 6,641,271 in data set [3]; 1,235,460 in data set [4]; 225,686 in data set [5]. For the same substance, the “Initial fluorescence (×10^3)” value in data set [6] is 33,015 ×10^3. Besides, the “Recovered fluorescence (×10^3)” value in data set [6] is on record as 7,459 ×10^3.
Consider “N-TAMRA-Phe-Asp- Phe-Asp-Phe-Asp- Phe-Asp-Phe-C ({TAMRA}-FDFDFDFDF) [Peptide 2DOS-10]”, for which the Percent retention in data set [1] stood at 24%; in data set [2], 39%; in data set [3], 33%; in data set [4], 22%; in data set [5], 17%. The Untreated fluorescence was 6,043,214 in data set [1]; 13,661,609 in data set [2]; 8,445,090 in data set [3]; 3,043,118 in data set [4]; 602,771 in data set [5]. The Retained fluorescence in data set [1] is 1,439,375; in data set [2] it was 5,353,630; in data set [3], 2,773,876; in data set [4], 654,623; in data set [5] it was 100,265. Besides, the “Initial fluorescence (×10^3)” value in data set [6] is reported as 28,479 ×10^3. Moreover, the “Recovered fluorescence (×10^3)” value in data set [6] is recorded as 2,884 ×10^3.
“N-TAMRA-Ser-Asp- Ser-Ala-Ser-Ser- Ser-Lys-Ser-C ({TAMRA}-SDSASSSKS) [Peptide 2DOS-3]”: the Percent retention is listed as 12% in data set [1]; 20% in data set [2]; 22% in data set [3]; 10% in data set [4]; 5% in data set [5]. Besides, the Untreated fluorescence in data set [1] is recorded as 5,660,618; in data set [2], 14,152,875; in data set [3], 9,020,171; in data set [4] it was 3,583,352; in data set [5], 744,747. The Retained fluorescence in data set [1] was 673,940; in data set [2], 2,836,015; in data set [3] it was 1,951,694; in data set [4], 342,889; in data set [5] it was 37,388. The “Initial fluorescence (×10^3)” value in data set [6] is 32,913 ×10^3. Further, the “Recovered fluorescence (×10^3)” value in data set [6] was 8 ×10^3.
